Reference: patent US20220185871A1
pKd: −log10 of the molar value.

Molecular target: Man9-V3 glycopeptide
Experiment: BLI (Octet Red96), biotinylated Man9-V3 on streptavidin sensors, antibody in solution, bivalent avidity model

| Substance | pKd |
| --- | --- |
| DH270.1 (antibody) | 6.48 |
| DH270.6 (antibody) | 6.73 |
